Experimental findings from article PMC7731665 (Frontiers in Immunology, 2020) are described below.

In this test the target is T1, vimentin in lupus nephritis kidney tissue (Homo sapiens, UniProt P08670).
T1 construct: endogenous vimentin of human lupus nephritis biopsies; vimentin-rich zones marked with the anti-vimentin antibody V9; also called Vim^hi zones of inflamed lupus kidney; source: endogenous, paraffin embedded human lupus kidney biopsies
In words: immunostaining of cells or tissue; paraffin embedded lupus nephritis kidney biopsies, FLAG-tagged human IgG1 mAbs detected with rat anti-FLAG and Alexa Fluor 488 anti-rat IgG, co-stained with V9 and Hoechst; confocal microscopy, per field of view. The settings on record: one partner purified.

T1 sequence (P08670 whole entry): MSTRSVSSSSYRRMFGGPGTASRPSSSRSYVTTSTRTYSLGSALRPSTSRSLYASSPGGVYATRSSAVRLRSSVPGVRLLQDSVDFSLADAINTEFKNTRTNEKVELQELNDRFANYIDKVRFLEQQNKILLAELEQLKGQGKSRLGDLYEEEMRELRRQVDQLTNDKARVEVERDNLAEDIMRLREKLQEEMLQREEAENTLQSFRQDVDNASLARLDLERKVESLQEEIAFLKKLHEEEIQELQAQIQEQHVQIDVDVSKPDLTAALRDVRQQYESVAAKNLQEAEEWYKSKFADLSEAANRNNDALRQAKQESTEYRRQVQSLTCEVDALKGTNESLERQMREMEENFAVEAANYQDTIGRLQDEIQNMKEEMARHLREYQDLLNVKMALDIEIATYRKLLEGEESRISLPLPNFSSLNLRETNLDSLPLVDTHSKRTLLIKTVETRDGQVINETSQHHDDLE

B1: FLAG-tagged PB4rev (antibody, V domains shown)
VH: QVQLQESGPGLVKPSETLSLTCTVSGGSISSYYWSWIRQPAGKGLEWIGRIYTSGSTNYNPSLKSRVTMSVDTSKNQFSLKLSSVTAADTAVYYCARESRGAVLTGDYYYYYYMDVWGKGTTVTVSS
VL: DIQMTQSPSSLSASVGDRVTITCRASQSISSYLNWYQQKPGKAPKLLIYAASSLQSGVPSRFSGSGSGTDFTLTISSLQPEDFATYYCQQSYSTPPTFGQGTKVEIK
notes: as the heavy chain of m8; as the light chain of m8; also called PB4rev (FLAG); source: heavy chain vector FJ475055 with FLAG co-expressed with the light chain plasmid, purified with protein A; not shown: FLAG, C-terminal, kept
As for B1, the binding result was “binds”.
